Measured values taken from article PMC12948223, “HSP70 Interactome‐Mediated Proteolysis Targeting Chimera (HSP70‐PROTAC) for Ferroptosis‐Driven Cancer Treatment” (Advanced Science, 2025).

Experiments:
[1] = biological target: T1, heat shock cognate protein 70 (Hsc70), recombinant (human, UniProt P11142 1-646); assay: SPR; Biacore 8K; human Hsc70 immobilised on a CM5 chip; GPX4 without compound (binary complex); PBS pH 7.4 running buffer, 30 uL/min, 25 °C, 120 s association and 120 s dissociation; conditions: both partners purified
T1 construct: Hsc70 (HSPA8), human, bought recombinant protein; see the vendor's data sheet for HY-P73915A; also called HSPA8; heat shock cognate 70 protein; source: bought: MedChemExpress, #HY-P73915A (recombinant protein)
T1 sequence (P11142 whole entry): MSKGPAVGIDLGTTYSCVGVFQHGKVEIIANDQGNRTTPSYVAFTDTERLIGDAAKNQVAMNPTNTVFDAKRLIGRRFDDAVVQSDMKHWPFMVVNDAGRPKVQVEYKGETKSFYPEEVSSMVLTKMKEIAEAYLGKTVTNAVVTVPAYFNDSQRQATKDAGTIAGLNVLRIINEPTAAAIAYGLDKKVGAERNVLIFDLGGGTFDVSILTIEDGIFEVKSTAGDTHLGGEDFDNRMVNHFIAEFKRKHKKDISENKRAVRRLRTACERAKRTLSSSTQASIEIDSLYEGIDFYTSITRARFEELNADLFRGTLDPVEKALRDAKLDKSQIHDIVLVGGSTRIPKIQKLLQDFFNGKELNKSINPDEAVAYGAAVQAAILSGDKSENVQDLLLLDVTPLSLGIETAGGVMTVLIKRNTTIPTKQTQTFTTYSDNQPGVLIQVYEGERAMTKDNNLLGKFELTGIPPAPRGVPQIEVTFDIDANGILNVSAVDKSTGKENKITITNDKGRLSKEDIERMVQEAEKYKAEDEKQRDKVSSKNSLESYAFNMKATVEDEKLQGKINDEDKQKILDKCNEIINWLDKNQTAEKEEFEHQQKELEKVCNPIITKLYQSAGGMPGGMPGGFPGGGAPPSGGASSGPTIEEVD

[2] = biological target: T1, heat shock cognate protein 70 (Hsc70), …; assay: SPR; Biacore 8K; Hsc70 immobilised on a CM5 chip; GDAz-3 at 1 uM preincubated with GPX4 (ternary-complex measurement); PBS pH 7.4, 30 uL/min, 25 °C, 120 s association and 120 s dissociation; conditions: both partners purified

Kd [1]: 100 nM | KD with GDAz-3 [2]: 23.9 nM
B1: glutathione peroxidase 4 (GPX4), recombinant (enzyme)
chain: MCASRDDWRCARSMHEFSAKDIDGHMVNLDKYRGFVCIVTNVASQUGKTEVNYTQLVDLHARYAECGLRILAFPCNQFGKQEPGSNEEIKEFAAGYNVKFDMFSKICVNGDDAHPLWKWMKIQPKGKGILGNAIKWNFTKFLIDKNGCVVKRYGPMEEPLVIEKDLPHYF
modifications: Limits are by convention: cytosolic isoform, starting at precursor Met28 (paper numbering + 27, so Sec46 = U73; matches the start of 6HKQ). The commercial protein's limits and tag are not stated. …
